Measurements: US20230250178A1 (published 2023)
Numbering of substitutions follows the chain as printed. Like-named read-outs stand apart in the source and are kept apart here.

Experiments:
human CCR8 [1] = target: T1, human CCR8 (human, UniProt P51685 1-355); experiment: FACS
T1 construct: also called hCCR8; P51685_CCR8_HUMAN

cynomolgus CCR8 [2] = target: T2, cynomolgus CCR8 (cynomolgus, UniProt O97665 1-356 (rhesus entry)); experiment: FACS
T2 construct: also called cynoCCR8; G7NYJ2_CCR8_MACFA
T2 sequence (O97665 other isoform, or with tags, fused parts or gaps): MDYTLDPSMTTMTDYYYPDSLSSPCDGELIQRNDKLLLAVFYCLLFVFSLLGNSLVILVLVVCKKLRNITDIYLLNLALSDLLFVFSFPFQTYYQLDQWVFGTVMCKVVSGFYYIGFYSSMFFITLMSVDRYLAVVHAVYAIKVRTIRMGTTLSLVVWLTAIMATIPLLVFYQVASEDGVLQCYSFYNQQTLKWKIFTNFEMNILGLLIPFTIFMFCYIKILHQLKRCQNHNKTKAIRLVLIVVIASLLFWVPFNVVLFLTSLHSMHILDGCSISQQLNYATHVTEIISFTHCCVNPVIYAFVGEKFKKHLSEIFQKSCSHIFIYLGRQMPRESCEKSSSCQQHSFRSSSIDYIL

murine CCR8 [3] = target: T3, murine CCR8 (mouse, UniProt P56484 1-353); experiment: FACS, CHO-mCCR8
T3 construct: also called mCCR8; P56484_CCR8_MOUSE
T3 sequence: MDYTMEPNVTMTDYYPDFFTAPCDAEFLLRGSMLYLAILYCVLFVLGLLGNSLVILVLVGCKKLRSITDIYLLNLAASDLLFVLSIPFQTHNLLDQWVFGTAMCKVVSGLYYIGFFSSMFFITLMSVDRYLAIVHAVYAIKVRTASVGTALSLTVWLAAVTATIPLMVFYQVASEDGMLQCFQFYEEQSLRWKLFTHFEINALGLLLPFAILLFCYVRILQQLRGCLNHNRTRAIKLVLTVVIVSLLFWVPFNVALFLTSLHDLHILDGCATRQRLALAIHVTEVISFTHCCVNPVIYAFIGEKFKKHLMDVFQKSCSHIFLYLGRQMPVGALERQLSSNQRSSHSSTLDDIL

murine CCR8 [4] = target: T3, murine CCR8; experiment: cell-based or functional assay
[5] = target: T4, HUMAN_TRD_Ys peptide (# 4) (human, Y(SO3) at printed positions 4, 16, 18 (Y3, Y15, Y17 of CCR8); C-terminal K(Biot)); experiment: SPR, peptide on SA chip
T4 construct: sulfated
T4 peptide: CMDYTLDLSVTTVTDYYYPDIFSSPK
Protocol: (§1) SPR binding assays were performed to systematically evaluate antibody binding to a) non-sulfated vs sulfated antigen, b) TRD vs N term and c) human vs cynomolgus CCR8. SPR binding assays were performed on a Biacore T200 instrument (Cytiva) at 25° C. with assay buffer 1× HBS-EP+(order no. BR100826, Cytiva). Peptides were used as ligands and were captured using their C-terminal biotin label on to a streptavidin coated sensor chip (“Sensor Chip SA”, Order No. BR100398, Cytiva). To this end, a terminal lysine (K) was added at the C-term of each peptide for biotinylation. For the N term of CCR8, the naturally occurring cysteine between TRD and LID domain was replaced by a serine. […] The concentration of analyte in assay buffer was 0.05-10 nM and the measurement was performed in multicycle kinetics mode. The sensor surface was regenerated with glycine pH 2.0 after each cycle. Obtained sensorgrams were double referenced (subtraction of reference flow cell signal and buffer injection) and were fitted to a 1:1 Langmuir binding model to derive kinetic data using the Biacore T200 Evaluation software.

[6] = target: T5, HUMAN_NTerm_Ys peptide (# 8) (human, Y(SO3) at printed positions 4, 16, 18 (Y3, Y15, Y17 of CCR8); C-terminal K(Biot)); experiment: SPR, peptide on SA chip
T5 construct: sulfated; natural cysteine between TRD and LID replaced by serine
T5 peptide: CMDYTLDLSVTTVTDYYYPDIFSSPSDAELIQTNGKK
Protocol: as §1

[7] = target: T6, Cyno_NTerm_Ys peptide (# 6) (cynomolgus, Y(SO3) at printed positions 4, 16, 18 (Y3, Y15, Y17 of CCR8); C-terminal K(Biot)); experiment: SPR, peptide on SA chip
T6 construct: sulfated; natural cysteine between TRD and LID replaced by serine
T6 peptide: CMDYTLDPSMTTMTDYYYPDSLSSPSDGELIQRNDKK
Protocol: as §1

[8] = target: T7, Cyno_TRD_Ys peptide (# 2) (cynomolgus, Y(SO3) at printed positions 4, 16, 18 (Y3, Y15, Y17 of CCR8); C-terminal K(Biot)); experiment: SPR, peptide on SA chip
T7 construct: sulfated
T7 peptide: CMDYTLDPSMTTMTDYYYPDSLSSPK
Protocol: as §1

human CCR8 [9] = target: T1, human CCR8; experiment: FACS, CHO-hCCR8
cynomolgus CCR8 [10] = target: T2, cynomolgus CCR8; experiment: FACS, CHO-cynoCCR8
cynomolgus FcRn = cynomolgus FcRn (cynomolgus, UniProt Q8SPV9 24-297, limits assumed); experiment: SPR pH 6.0, FcRn immobilised
cynomolgus FcRn, sequence (Q8SPV9 24-297 limits assumed, form in doubt): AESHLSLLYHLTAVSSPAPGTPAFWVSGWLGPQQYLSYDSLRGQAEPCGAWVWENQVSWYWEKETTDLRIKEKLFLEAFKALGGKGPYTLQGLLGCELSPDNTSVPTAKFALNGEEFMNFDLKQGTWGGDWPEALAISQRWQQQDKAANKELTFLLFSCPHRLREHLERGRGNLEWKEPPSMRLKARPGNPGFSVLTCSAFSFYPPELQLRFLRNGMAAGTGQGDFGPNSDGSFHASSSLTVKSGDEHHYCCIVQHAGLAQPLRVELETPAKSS

human FcRn = target: T8, human FcRn (human, UniProt P55899 24-297); experiment: SPR pH 6.0, FcRn immobilised
T8 construct: also called neonatal Fc receptor
T8 sequence (P55899 24-297 limits assumed, form in doubt): as the sequence (Q8SPV9 24-297 limits assumed, form in doubt) above, with D39N, Q44E, S99G, G189S, N190S, M217L, T269S counted along it

mouse FcRn = target: T9, mouse FcRn (mouse, UniProt Q61559 22-297, limits assumed); experiment: SPR pH 6.0, FcRn immobilised
T9 sequence (looked up): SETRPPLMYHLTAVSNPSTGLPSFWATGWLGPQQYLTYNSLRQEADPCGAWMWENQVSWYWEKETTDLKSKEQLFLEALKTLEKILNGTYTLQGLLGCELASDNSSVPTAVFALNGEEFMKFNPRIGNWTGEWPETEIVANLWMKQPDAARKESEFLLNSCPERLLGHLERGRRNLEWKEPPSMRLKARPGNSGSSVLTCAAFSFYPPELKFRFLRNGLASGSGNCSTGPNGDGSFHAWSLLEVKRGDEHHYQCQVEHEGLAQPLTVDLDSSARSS

[11] = target: T10, FcRn of the FcRn column (Roche, Order No. 8128057001); experiment: FcRn affinity chromatography, pH gradient
T10 construct: also called immobilized FcRn
T10 sequence (P55899 24-297, chain 1 of 2): as the sequence (Q8SPV9 24-297 limits assumed, form in doubt) above, with D39N, Q44E, S99G, G189S, N190S, M217L, T269S counted along it
T10 sequence (P61769 21-119, chain 2 of 2, further chain): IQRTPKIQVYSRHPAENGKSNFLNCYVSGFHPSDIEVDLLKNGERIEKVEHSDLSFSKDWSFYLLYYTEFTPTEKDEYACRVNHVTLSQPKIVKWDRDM
Protocol: A FcRn column (Roche, Order No. 8128057001; prepacked with approximately 1 mL resin; binding capacity: ≥100 μg IgG) was equilibrated with running buffer A: 20 mM MES/HCl pH 5.5 140 mM NaCl. 30 μL of each antibody (1 mg/mL in equilibration buffer) was applied to the column.

human CCR8 [12] = target: T1, human CCR8; experiment: FACS, CHO-hCCR8; remark: listed apart in the source
cynomolgus CCR8 [13] = target: T2, cynomolgus CCR8; experiment: FACS, CHO-cynoCCR8; remark: listed apart in the source
human CCR8 [14] = target: T1, human CCR8; experiment: FACS, HuT78 (endogenous hCCR8)
human CCR8 [15] = target: T1, human CCR8; experiment: FACS screening, full length human IgG1
cynomolgus CCR8 [16] = target: T2, cynomolgus CCR8; experiment: FACS screening, full length human IgG1

B1: TPP-14095 (antibody, human IgG1, lambda, V domains shown)
VH: EVQLLESGGGLVQPGGSLRLSCAASGFTFSSYGMHWVRQAPGKGLEWVSAISGSGGSTYYADSVKGRFTISRDNSKNTLYLQMNSLRAEDTAVYYCARGRQLGSWGQGTLVTVSS
VL: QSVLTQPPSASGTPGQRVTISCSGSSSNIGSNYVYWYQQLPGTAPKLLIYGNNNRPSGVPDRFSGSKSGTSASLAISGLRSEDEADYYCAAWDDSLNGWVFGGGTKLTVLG
notes: anti-murine CCR8, human IgG1 lambda; also called 497A-M005-E07-hIgG1Lambda
- binding result (human CCR8 [1]): no binding
- binding result (cynomolgus CCR8 [2]): no binding
- EC50 (murine CCR8 [3]): 0.7 nM
- IC50, Ca flux assay (murine CCR8 [4]): 1.65 nM

B2: TPP-21181 (antibody, human IgG1, lambda, V domains shown)
VH: EVQLLESGGGLVQPGGSLRLSCAASGFTFSSYAMSWVRQAPGKGLEWVSGIRWNNGSKGYAGSVKGRFTISRDNSKNTLYLQMNSLRAEDTAVYYCARSGNYYYGYHGMDVWGQGTLVTVSS
VL: QSVLTQPPSASGTPGQRVTISCSGGNSNIGTYFVSWYQQLPGTAPKLLIYTNNQRPSGVPDRFSGSKSGTSASLAISGLRSEDEADYYCETWDSNTRVFGGGTKLTVLG
notes: also called 18205-gl46-hIgG1-wt-Lambda
- Activity in % [5]: 23.8%
- Kd [5]: ~2.87 nM
- koff [5]: ~16 s⁻¹
- kon [5]: ~5.56e+09 M⁻¹ s⁻¹
- Activity in % [6]: 17%
- Kd [6]: ~2.88 nM
- koff [6]: ~0.0222 s⁻¹
- kon [6]: ~7.69e+06 M⁻¹ s⁻¹
- Activity in % [7]: 78.5%
- Kd [7]: ~0.868 nM
- koff [7]: ~10.7 s⁻¹
- Activity in % [8]: 52.9%
- Kd [8]: ~1.39 nM
- koff [8]: ~5.87 s⁻¹
- kon [8]: ~4.23e+09 M⁻¹ s⁻¹
- EC50 (human CCR8 [9]): 4.8 nM
- EC50 (cynomolgus CCR8 [10]): 1.8 nM

B3: TPP-27495 (antibody, human IgG1, lambda)
heavy: EVQLLESGGGLVQPGGSLRLSCAASGFTFSSYGMHWVRQAPGKGLEWVSAINWNGGSTGYADSVKGRFTISRDNSKNTLYLQMNSLRAEDTAVYYCARGHHSGYDGRFFDYWGQGTLVTVSSASTKGPSVFPLAPSSKSTSGGTAALGCLVKDYFPEPVTVSWNSGALTSGVHTFPAVLQSSGLYSLSSVVTVPSSSLGTQTYICNVNHKPSNTKVDKKVEPKSCDKTHTCPPCPAPELLGGPSVFLFPPKPKDTLYITREPEVTCVVVDVSHEDPEVKFNWYVDGVEVHNAKTKPREEQYNSTYRVVSVLTVLHQDWLNGKEYKCKVSNKALPAPIEKTISKAKGQPREPQVYTLPPSRDELTKNQVSLTCLVKGFYPSDIAVEWESNGQPENNYKTTPPVLDSDGSFFLYSKLTVDKSRWQQGNVFSCSVMHEALHNHYTQKSLSLSPGK
light: not shown
modifications: 70% afucosylated
notes: also called TPP-27495 (YTE); copies: 2 + 2
- Kd (cynomolgus FcRn): 30 nM
- Kd (human FcRn): 29 nM
- Kd (mouse FcRn): 33 nM
- pH at Elution [11]: 7.88 pH
- EC50 (human CCR8 [12]): 1.32 nM
- EC50 (cynomolgus CCR8 [13]): 0.535 nM
- EC50 (human CCR8 [14]): 3.25 nM

B4: TPP-17575 (antibody, human IgG1, lambda, V domains shown)
VH: EVQLLESGGGLVQPGGSLRLSCAASGFTFRSYAMHWVRQAPGKGLEWVSLISWDGGSTYYADSVKGRFTISRDNSKNTLYLQMNSLRAEDTAVYYCARGGIGRRPGLEYWGQGTLVTVSS
VL: QSVLTQPPSASGTPGQRVTISCSGSSSNIGNNYVSWYQQLPGTAPKLLIYGNSNRPSGVPDRFSGSKSGTSASLAISGLRSEDEADYYCQTWGTGIRVFGGGTKLTVLG
notes: also called 497A-M181-C17-1-hIgG1Lambda
- binding result (human CCR8 [15]): binds
- binding result (cynomolgus CCR8 [16]): binds

B5: TPP-17576 (antibody, human IgG1, lambda, V domains shown)
VH: EVQLLESGGGLVQPGGSLRLSCAASGFTFSSYAMSWVRQAPGKGLEWVGRIRSKANSYATAYAASVKGRFTISRDNSKNTLYLQMNSLRAEDTAVYYCTRPLDSWGQGTLVTVSS
VL: QSVLTQPPSASGTPGQRVTISCSGSSSNIGNNAVNWYQQLPGTAPKLLIYRNNQRSSGVPDRFSGSKSGTSASLAISGLRSEDEADYYCQSYDNSLSASVFGGGTKLTVLG
notes: also called 497A-M136-021-1-hIgG1Lambda
- binding result (human CCR8 [15]): binds
- binding result (cynomolgus CCR8 [16]): binds

B6: TPP-17579 (antibody, human IgG1, lambda, V domains shown)
VH: EVQLLESGGGLVQPGGSLRLSCAASGFTFVTYWMTWVRQAPGKGLEWVSGVSWNGSRTHYVDSVKRRFTISRDNSKNTLYLQMNSLRAEDTAVYYCARYSGYPDYYGMDVWGQGTLVTVSS
VL: B5 VL with S26W, N32D, A33N, N35Y, S56P, N94R, A98G
notes: also called 497A-M180-K04-1-hIgG1Lambda
- binding result (human CCR8 [15]): binds
- binding result (cynomolgus CCR8 [16]): binds

B7: TPP-17580 (antibody, human IgG1, lambda, V domains shown)
VH: EVQLLESGGGLVQPGGSLRLSCAASGFTFSSYGMHWVRQAPGKGLEWVSGVSWNGSRTRYADSVKGRFTISRDNSKNTLYLQMNSLRAEDTAVYYCTRGSYNSGWYAVSWGQGTLVTVSS
VL: QSVLTQPPSASGTPGQRVTISCSGSSSNIGSYPVNWYQQLPGTAPKLLIYRNNQRPSGVPDRFSGSKSGTSASLAISGLRSEDEADYYCSSYSVTDNLIFGGGTKLTVLG
notes: also called 497A-M193-A08-1-hIgG1Lambda
- binding result (human CCR8 [15]): binds
- binding result (cynomolgus CCR8 [16]): binds

B8: TPP-17581 (antibody, human IgG1, lambda, V domains shown)
VH: EVQLLESGGGLVQPGGSLRLSCAASGFTFSNYRMTWVRQAPGKGLEWVSGINWNGGSTGYADSVKGRFTISRDNSKNTLYLQMNSLRAEDTAVYYCARGRFDTRGFYGFDYWGQGTLVTVSS
VL: QSVLTQPPSASGTPGQRVTISCTGSSSNIGAGYDVHWYQQLPGTAPKLLIYSHNQRPSGVPDRFSGSKSGTSASLAISGLRSEDEADYYCSAWDSSLSAWVFGGGTKLTVLG
notes: also called 497A-M177-L03-1-hIgG1Lambda
- binding result (human CCR8 [15]): binds
- binding result (cynomolgus CCR8 [16]): binds

B9: TPP-18207 (antibody, human IgG1, lambda, V domains shown)
VH: EVQLLESGGGLVQPGGSLRLSCAASGFTFSNAWMSWVRQAPGKGLEWVSGINWNGGSTGYADSVKGRFTISRDNSKNTLYLQMNSLRAEDTAVYYCARTYTGNYGPYFDYWGQGTLVTVSS
VL: B8 VL with S52K, H53N, S91A, S95D, S98R, A99G
notes: also called 001-B08_497A-M301-B18 + 497A-M316-D16-hIgG1Lambda
- binding result (human CCR8 [15]): binds
- binding result (cynomolgus CCR8 [16]): binds
